T1: Arid5a ARID (Homo sapiens) (UniProt Q03989)
T1 sequence: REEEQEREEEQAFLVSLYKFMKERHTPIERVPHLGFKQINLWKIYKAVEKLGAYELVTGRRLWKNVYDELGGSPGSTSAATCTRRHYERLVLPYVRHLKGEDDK

T2: ARID49-152 K85A/Q86A (human, UniProt Q03989 49-152, K85A;Q86A)
T2 sequence: T1 sequence with K37A, Q38A

T3: Arid5a ARID49-152 (human, UniProt Q03989 49-152)
T3 sequence: T1 sequence

T4: Arid5a ARID37-183 (human, UniProt Q03989 37-183)
T4 sequence: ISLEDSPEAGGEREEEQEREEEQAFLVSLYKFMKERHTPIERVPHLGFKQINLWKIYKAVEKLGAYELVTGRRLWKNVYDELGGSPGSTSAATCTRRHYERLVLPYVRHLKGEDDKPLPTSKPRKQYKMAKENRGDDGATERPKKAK

B1: FAM-13merAT (dsDNA)
DNA 1: GCACAATATAACG
DNA 2: CGTTATATTGTGC
B2: 13merAT (dsDNA)
DNA 1: GCACAATATAACG
DNA 2: CGTTATATTGTGC
B3: Il-6 3'UTR 129 nt (structured_RNA)
RNA: GGCACAGAACUUAUGUUGUUCUCUAUGGAGAACUAAAAGUAUGAGCGUUAGGACACUAUUUUAAUUAUUUUUAAUUUAUUAAUAUUUAAAUAUGUGAAGCUGAGUUAAUUUAUGUAAGUCAUAUUUAUA
B4: FAM-13merGC (dsDNA)
DNA 1: GCCCCGCCCGCCG
DNA 2: CGGCGGGCGGGGC
B5: 13merAT_var1 (dsDNA)
DNA 1: GCGCAATATAGCG
DNA 2: CGCTATATTGCGC
B6: 13merAT_var4 (dsDNA)
DNA 1: GCACAATACGACG
DNA 2: CGTCGTATTGTGC
B7: 13merAT_var2 (dsDNA)
DNA 1: GCACGGTATAACG
DNA 2: CGTTATACCGTGC

Changes are numbered by the printed parent chain.

T5 sequence (O14497 999-1132): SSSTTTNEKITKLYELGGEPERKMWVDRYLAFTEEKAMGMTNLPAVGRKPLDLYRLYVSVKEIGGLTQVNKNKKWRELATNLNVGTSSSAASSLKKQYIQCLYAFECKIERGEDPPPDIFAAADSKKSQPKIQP

The target in the first series is T1, Arid5a ARID (Homo sapiens). In words: pulldown. The settings on record: 1 and 5 uM protein; 25 mM Tris pH 7.5, 150 mM KCl, 3 mM MgCl2.
In the case of AGGCAGC [7-mer AGGCAGC], the binding signal (RBNS z-score of enrichment R) worked out at 7.71.
As for AAUAUAA [7-mer AATATAA], the binding signal (RBNS z-score of enrichment R) came out at 3.73.
For CAGGCAA [7-mer CAGGCAA], the binding signal (RBNS z-score of enrichment R) was determined as 6.65.
Regarding AAAAAAA [7-mer AAAAAAA], the binding signal (RBNS z-score of enrichment R) stood at 3.68.
Same read-out and setting: next, CAGGCAG [7-mer CAGGCAG]: 13; ACAGGCA [7-mer ACAGGCA]: 11.6; UACAGGC [7-mer TACAGGC]: 5.55.
In turn, CAGGCAU [7-mer CAGGCAT] yielded a binding signal (RBNS z-score of enrichment R) of 4.61.
As to AACAGGC [7-mer AACAGGC], the binding signal (RBNS z-score of enrichment R) turned out to be 4.87.
The same measure, in the same setting: next, AGGCAGU [7-mer AGGCAGT]: 6.38.
Consider AAAAAUA [7-mer AAAAATA], for which the binding signal (RBNS z-score of enrichment R) is 3.52.
With AAAUAUA [7-mer AAATATA], the binding signal (RBNS z-score of enrichment R) worked out at 4.03.
AGGCAGG [7-mer AGGCAGG] came in with a binding signal (RBNS z-score of enrichment R) of 8.18.
As to AGGCAGA [7-mer AGGCAGA], the binding signal (RBNS z-score of enrichment R) amounted to 6.46.
In turn, GCAGGCA [7-mer GCAGGCA] came in with a binding signal (RBNS z-score of enrichment R) of 5.88.

Another series addresses T5, Arid1a extended ARID (human, UniProt O14497 999-1132). In words: EMSA; 20 mM Bis-Tris pH 6.5, 150 mM NaCl, 2 mM TCEP, 0.02% NaN3; NMR at 298 K; EMSA plus 10 mM MgCl2 and 0.6 ug yeast tRNA per 20 ul, 22-24 C. The settings on record: protein: recombinant; tags: cloned in pET-Trx1a (TEV site); label: 5'-fluorescein on strand 1; blunt.
On to B1, for which the binding result was “binds”.

Another series concerns the target T2, ARID49-152 K85A/Q86A. The experiment in a line: NMR; 2-fold DNA; 20 mM Bis-Tris pH 6.5, 150 mM NaCl, 2 mM TCEP, 0.02% NaN3; NMR at 298 K; EMSA plus 10 mM MgCl2 and 0.6 ug yeast tRNA per 20 ul, 22-24 C. The settings on record: protein: recombinant; tags: cloned in pET-Trx1a (TEV site); blunt.
In the case of B2, the binding result is given as “binds”.

The next series deals with T3, Arid5a ARID49-152. In words: NMR; 2-fold RNA; 20 mM Bis-Tris pH 6.5, 150 mM NaCl, 2 mM TCEP, 0.02% NaN3; NMR at 298 K; EMSA plus 10 mM MgCl2 and 0.6 ug yeast tRNA per 20 ul, 22-24 C. The settings on record: protein: recombinant; tags: cloned in pET-Trx1a (TEV site).
Regarding CCUGCCUGU (ssRNA) [RBNS-9mer-rev], the binding result is listed as “binds”.
Regarding ACAGGCAGG (ssRNA) [RBNS-9mer-fw], the binding result is given as “binds”.

The next series has as its target T4, Arid5a ARID37-183. The experiment in a line: NMR; 0.1-fold RNA; 20 mM Bis-Tris pH 6.5, 150 mM NaCl, 2 mM TCEP, 0.02% NaN3; NMR at 298 K; EMSA plus 10 mM MgCl2 and 0.6 ug yeast tRNA per 20 ul, 22-24 C. The conditions noted are these: protein: recombinant; tags: cloned in pET-Trx1a (TEV site).
As to B3, the binding result was “binds”.

The next series addresses T5, Arid1a extended ARID. In words: EMSA; similar affinity to AT; 20 mM Bis-Tris pH 6.5, 150 mM NaCl, 2 mM TCEP, 0.02% NaN3; NMR at 298 K; EMSA plus 10 mM MgCl2 and 0.6 ug yeast tRNA per 20 ul, 22-24 C. The conditions noted are these: protein: recombinant; tags: cloned in pET-Trx1a (TEV site); label: 5'-fluorescein on strand 1; blunt.
As to B4, the binding result is given as “binds”.

A further series concerns the target T4, Arid5a ARID37-183. In words: NMR; 3.5-fold RNA; stronger than core; 20 mM Bis-Tris pH 6.5, 150 mM NaCl, 2 mM TCEP, 0.02% NaN3; NMR at 298 K; EMSA plus 10 mM MgCl2 and 0.6 ug yeast tRNA per 20 ul, 22-24 C. The settings on record: protein: recombinant; tags: cloned in pET-Trx1a (TEV site); hairpin.
In the case of CACACCGUUCUAGGUGCUG (structured_RNA) [19mer_ADE (Ox40 ADE)], the binding result is given as “binds”.

For another series, the target named is T4, Arid5a ARID37-183. The experiment in a line: EMSA; 10 mM MgCl2, yeast tRNA; range over WT, var1, var2, var4; 20 mM Bis-Tris pH 6.5, 150 mM NaCl, 2 mM TCEP, 0.02% NaN3; NMR at 298 K; EMSA plus 10 mM MgCl2 and 0.6 ug yeast tRNA per 20 ul, 22-24 C. The conditions noted are these: protein: recombinant; tags: cloned in pET-Trx1a (TEV site); label: 5'-fluorescein on strand 1; blunt.
As for B5, the Kd was roughly 1.36 µM.
For the molecule B6, the Kd is roughly 1.36 µM.
The same measure, in the same setting: next, B1: roughly 1.36 µM; B7: roughly 1.36 µM.

Values taken from article PMC11262183, “Arid5a uses disordered extensions of its core ARID domain for distinct DNA- and RNA-recognition and gene regulation”.
